We go through 9 molecules from patent US20050085416A1, “Biologically active complex” (priority 2002, published 2005).

Residue numbers refer to the chain shown, from its start. Names and notes keep the numbering of the source. Values joined by “and” are separate entries in the source; they are usually repeats but may differ in a detail not shown here. Equal values may be shown once. “Also recorded” adds a separate entry of the source. Read-outs that look alike come from different tables or passages of the source.

In data set [1] the test system is L1210 leukaemia cells. Kind of data set: Apoptosis bioassay: L1210 cell viability by Trypan blue exclusion. The data set is classed as cell-based, mouse. The note with it: for loss of cell viability: L1210, 0.3 mg/ml; for LD50: L1210 cells; for apoptosis induction / biological activity: apoptosis assay. Here is the method: The different agonists were dissolved in cell culture medium, without fetal calf serum, and added to the cells (final volume 1 ml per well). Plates were incubated at 37° C. in 5% CO2 atmosphere and 100 μl of fetal calf serum was added to each well after 30 minutes. Cell culture medium served as a control.
Cell viability was determined by Trypan blue exclusion after six hours of incubation. For analysis, 30 μl of the cell suspension was mixed with 30 μl of a 0.2% trypan blue solution and the number of stained cells (dead cells) per 100 cells was determined by interference contrast microscopy (Ortolux II, Leitz Wetzlar, Germany).

Data set [2] deals with L1210 leukaemia cells. Briefly: DNA fragmentation (oligonucleosome length fragments, agarose gel) in L1210 cells. In kind it is cell-based, mouse. The settings on record: L1210, six hours. The method, then: Oligonucleosome length DNA fragments were detected by agarose gel electrophoresis. The cell suspension remaining after trypan blue (970 μl, 2×10^6/ml) was lysed in 5 mM Tris, 20 mM EDTA, 0.5% Triton X-100 pH 8.0 at 4° C. for 1 hour and centrifuged at 13,000×g for 15 minutes. DNA was ethanol precipitated over night in −20° C., treated with proteinase K and RNAse, loaded on 1.8% agarose gels and electrophoresed with constant voltage set at 50V over night. DNA fragments were visualised with ethidium bromide using a 305 nm UV-light source and photographed using Polaroid type 55 positive-negative film.

A short description of data set [3]: Ca2+ titration in the presence of chromophoric chelator quin 2. The settings on record: for Ca2+ binding: quin 2 titration; for Ka, calcium association constant: 2 mM Tris/HCl, chelator quin 2; for Kd: read-out: KD, calcium. The data set is classed as binding. From the text:
To study the Ca^2+ binding equilibrium, the proteins listed in table 1 including the D87A BAMLET obtained as described in Example 7, and HAMLET, was titrated with calcium in the presence of a chromophoric chelator, quin 2, for which the absorbance at 263 nm decreases (approx. 85%) upon Ca^2+-binding. The method relies on competition for calcium between the protein and chelator, and can be used to quantitate high affinity sites (ca. 10^7-5·10^9 M^−1 at low salt, and ca. 5 10^5-1·10^8 M^−1 at 0.15 NaCl) when quin 2 is the chelator. The exact concentration of the chelator solution (in the range of 25-30 μM) was calculated from the absorbance at 239.5 nm in the presence of excess calcium (using ε239.5=4.2×10^4 L mol^−1 cm^−1 for quin 2). Lyophilised protein was dissolved in calcium free (<1 μM Ca^2+) chelator solution at a concentration of 25-30 μM. The absorbance at 263 nm (A263) was recorded for the protein/chelator solution using a UV/Vis 920 spectrophotometer (GBC Scientific Equipment Pty Ltd, Victoria, Australia). Calcium solution (3 mM CaCl2 in 2 mM Tris/HCl, pH 7.5, with or without 0.15 M NaCl) was added in portions of 4 μl. A263 was recorded after each calcium addition.
A more concentrated Ca^2+ stock (10 mM) was used at the end of the titrations of the proteins in 0.15 M NaCl. The data was analysed by least squares fitting directly to the measured quantity, absorbance versus total calcium concentration, using the CaLigator software (Andre and Linse, 2002).

For data set [4] the following is noted: cited from earlier work; for calcium binding: point mutants of bovine α-lactalbumin.
Data set [5] is described as follows: Spectroscopy (near UV CD, fluorescence, ANS) after addition of excess calcium. In kind it is binding. The settings on record: excess calcium (1 mM), no spectral changes. The method, then:
The products were then subjected to spectroscopic analysis. The proteins or protein fractions were dialyzed against doubly distilled water and lyophilised. Stock solutions were prepared by dissolving the lyophilised material in 10 mM potassium phosphate buffer at pH 7.5, and concentrations determined as the absorbance at 280 nm (A/l=C (mg/ml) where 1 mg/ml of α-lactalbumin is 70 μM). The spectra were recorded at the appropriate dilution.
Circular Dichroism (CD) spectra were obtained on a JASCO J-720 spectro-polarimeter with a JASCO PTC-343 Peltier type thermostated cell holder. Quartz cuvettes were used with 1 cm path length and spectra were recorded at 25° C. between 240 and 320 nm. […] Six scans were recorded and averaged for each spectrum. Baseline spectra were recorded with pure buffer in the cuvette and substracted from the protein spectra.
Fluorescence spectra were recorded at 25° C. on a Perkin Elmer LS-50B spectrometer using a quartz cuvette with 1 cm excitation path length. Intrinsic (tryptophan) fluorescence emission spectra were recorded between 305 and 530 nm (step 1 nm) with excitation at 295 nm. […] ANS fluorescence emission spectra were recorded at 25° C. on a Perkin Elmer LS-50B spectrometer using a quartz cuvette with 1 cm excitation path length, between 400 and 600 nm (step 1 nm) with excitation at 385 nm. […]

[6] abbreviates: L1210, six hours, 0.3 mg/ml, reduced from 99%.
[7] abbreviates: 5 mM Tris, 0.1 mM EDTA, pH 7.2, 298 K, CD 270 nm.
Setting [8] is: 10 mM Tris/HCl, no salt, pH 7.5, 298 K, ITC.
Where [9] appears, read: L1210, 6 hours' exposure, 0.5 mg/ml, from 98%.

What is called cell viability is the share of living cells, or the viability signal relative to a control. Low values mean a greater loss of cells, high ones better survival. With BAMLET, in the data set with L1210 leukaemia cells [1], the “loss of cell viability” value is “equally sensitive” and the LD50 came to 0.2 mg/mL. This molecule registered a cell viability in the data set with L1210 leukaemia cells [1] (L1210, 6 hours' exposure, reduced from 98%, concentration not given) of 4%. The cell viability in the data set on L1210 leukaemia cells [1] (setting [6]) turned out to be 12%. Further, the “DNA fragmentation” value with L1210 leukaemia cells [2] is listed as “stimulated the formation of the characteristic DNA ladder; also recorded: induces DNA fragmentation”. Besides, the “Ca2+ binding” value in data set [3] is “shown to bind Ca^2+”.

α-lac bovine: bovine α-lactalbumin: the “Ka” value was 2.5e+08 M⁻¹ in data set [4] (setting [7]); 4.3e+08 M⁻¹ in data set [4] (setting [8]); 2.85e+08 M⁻¹ in data set [4] (10 mM Tris/HCl, pH 8, DSC); 4.8e+07 M⁻¹ in data set [4] (10 mM ammonium bicarbonate, pH 7.8, EGTA, fluorescence); 2.7e+06 M⁻¹ in data set [4] (20 mM Tris, pH 7.5, 298 K, fluorescence, Hummel & Dryer method); 2.5e+06 M⁻¹ in data set [4] (20 mM Tris, pH 7.5, 298 K, microcalorimetry). In addition, the “Ka” value is 4e+08 M⁻¹ in data set [4] (50 mM Hepes, pH 8, 293 K, fluorescence); 2e+07 M⁻¹ in data set [4] (50 mM Hepes, pH 8, 310 K, fluorescence); 2e+07 M⁻¹ in data set [4] (H2O, 100 mM KCl, pH 7, 294 K, EDTA, 43Ca-NMR); 2e+07 M⁻¹ in data set [4] (H2O, 100 mM KCl, pH 8, 294-298 K, EGTA 13C-NMR).

B1: D87A: bovine α-lactalbumin with aspartic acid at position 87 substituted by alanine (protein, UniProt P00711 20-142, looked up, variant D87A)
Alpha-lactalbumin: EQLTKCEVFRELKDLKGYGGVSLPEWVCTTFHTSGYDTQAIVQNNDSTEYGLFQINNKIWCKDDQNPHSSNICNISCDKFLDDDLTADIMCVKKILDKVGINYWLAHKALCSEKLDQWLCEKL
In the case of B1, the “apoptosis induction / biological activity” value in the data set with L1210 leukaemia cells [1] is “biologically inactive”. The figures for the “calcium binding” value in data set [5] and in data set [4] were “did not bind calcium” and “totally abolished calcium binding”, respectively.

B2: D87N: bovine α-lactalbumin with aspartic acid at position 87 substituted by asparagine (protein, UniProt P00711 20-142, looked up, variant D87N)
Alpha-lactalbumin: B1 Alpha-lactalbumin with A87N
B2: the “apoptosis induction / biological activity” value in the data set with L1210 leukaemia cells [1] is “biologically inactive”. In data set [4], the “calcium binding” value is on record as “still bound calcium but with lower affinity”.

B3: D87A-BAMLET: protein-lipid complex of D87A mutant bovine α-lactalbumin eluted from C18:1 conditioned column (protein, UniProt P00711 20-142, looked up, variant D87A)
Alpha-lactalbumin: B1 Alpha-lactalbumin
modifications: complex with C18:1 fatty acid
notes: protein-lipid complex of D87A mutant bovine α-lactalbumin eluted from C18:1 conditioned column
The molecule B3 came in with a cell viability in the data set with L1210 leukaemia cells [1] (setting [9]) of 13%. Further, the LD50 with L1210 leukaemia cells [1] is 0.4 mg/mL. The “DNA fragmentation” value in the data set on L1210 leukaemia cells [2] is “induced DNA fragmentation similar to the BAMLET control”. Besides, in data set [3], the “Ca2+ binding” value is reported as “no difference compared to the titration of quin 2 alone; also recorded: does not bind Ca^2+”.

B4: D87N-BAMLET: protein-lipid complex of D87N mutant bovine α-lactalbumin eluted from C18:1 conditioned column (protein, UniProt P00711 20-142, looked up, variant D87N)
Alpha-lactalbumin: B1 Alpha-lactalbumin with A87N
modifications: complex with C18:1 fatty acid
notes: protein-lipid complex of D87N mutant bovine α-lactalbumin eluted from C18:1 conditioned column
Take B4: in the data set with L1210 leukaemia cells [1] (setting [9]), the cell viability came to 17%. In addition, the LD50 in the data set with L1210 leukaemia cells [1] is 0.4 mg/mL. In the data set with L1210 leukaemia cells [2], the “DNA fragmentation” value is given as “induced DNA fragmentation similar to the BAMLET control”.

B5: αlac goat: goat α-lactalbumin (protein, UniProt P00712 20-142, looked up)
Alpha-lactalbumin: B1 Alpha-lactalbumin with R10Q, E11K, G17D, T30A, S70R, A87D, M90V, V92A
Consider B5, for which the results for the “Ka” value in data set [4] (setting [7]) and in data set [4] (setting [8]) were 2.8e+08 M⁻¹ and 5.7e+08 M⁻¹, respectively.

B6: HAMLET (protein, UniProt P00709 20-142, looked up)
Alpha-lactalbumin: KQFTKCELSQLLKDIDGYGGIALPELICTMFHTSGYDTQAIVENNESTEYGLFQISNKLWCKSSQVPQSRNICDISCDKFLDDDITDDIMCAKKILDIKGIDYWLAHKALCTEKLEQWLCEKL
modifications: complex with oleic acid
The Kd is the constant that tells how readily two partners part at equilibrium. In the case of B6, in the data set on L1210 leukaemia cells [1], the “loss of cell viability” value was “died rapidly”. Also, the “apoptosis induction” value in the data set on L1210 leukaemia cells [1] (L1210, HAMLET 0.3 mg (0.3 mg/ml)) was “induced apoptosis; also recorded: sufficient to kill the cells by apoptosis”. In the data set on L1210 leukaemia cells [1] (setting [6]), this molecule gave a cell viability of 0%. This molecule also gave an LD50 in the data set with L1210 leukaemia cells [1] of 0.2 mg/mL. In addition, the “apoptosis induction / biological activity” value in the data set with L1210 leukaemia cells [1] is “cause apoptosis”. Besides, the “DNA fragmentation” value is listed as “DNA fragmentation was induced” with L1210 leukaemia cells [2] and “DNA fragmentation was observed” in the data set on L1210 leukaemia cells [2] (listed as C18:1:9cis complex). Further, the “Ka, calcium association constant” value was 5.3.10^6 M^−1 and 5.3 · 10^6 M^−1 in data set [3] (150 mM NaCl (physiological salt)); 5.9e+09 M⁻¹ and 5.9e+08 M⁻¹ in data set [3] (low salt (no added salt)). Also, the dissociation constant Kd in data set [3] (low salt) was determined as 1.7 nM; in data set [3] (physiological salt, 0.15 M NaCl), 190 nM. Further, the “calcium affinity, times lower than α-lactalbumin” value in data set [3] (no salt added) worked out at 3 times; in data set [3] (physiological salt concentration) it was 1.6 times. Also, the “Ca2+ binding” value in data set [3] was “shown to bind Ca^2+”.

B7: C18:1:11cis complex: complex of apo-α-lactalbumin with C18:1:11cis fatty acid eluted after 1M NaCl (protein, UniProt P00709 20-142, looked up)
Alpha-lactalbumin: B6 Alpha-lactalbumin
modifications: complex with C18:1:11cis fatty acid
notes: complex of apo-α-lactalbumin with C18:1:11cis fatty acid eluted after 1M NaCl
In the case of B7, in the data set on L1210 leukaemia cells [1] (setting [6]), the cell viability stood at 0%. For the same molecule, the “apoptosis induction / biological activity” value in the data set on L1210 leukaemia cells [1] was “cause apoptosis”. For the same molecule, in the data set with L1210 leukaemia cells [2], the “DNA fragmentation” value is listed as “DNA fragmentation was observed”.
